Data: patent US20060127409A1 (published 2006)

Experiments:
[1] = target: T1, HLA-A0201 molecule on T2 cells (TAP-, HLA-A0201+) (human); assay: refers to the T2 assay
T1 construct: Empty, thermolabile HLA-A0201 on TAP-deficient T2 cells, stabilised by added peptide; surface level read with mAb BB7.2; also called HLA-A2.1; HLA-A2
Description: (§1) T2 cells (TAP-, HLA-A0201⁺) were incubated overnight at 37° C. at a concentration of 1×10⁶ cells/ml in FCS-free RPMI medium supplemented with 5 μg/ml human β₂m (Sigma, St Louis, Mo.) in the absence (negative control) or presence of either a positive reference tyrosinase peptide or test peptides at various final concentrations (50, 10, 1, and 0.1 micrograms (μg)/ml). Following a 4-hour incubation with 5 μg/ml brefeldin A (Sigma), T2 cells were labeled for 30 minutes at 4° C. with a saturating concentration of anti-HLA-A2.1 (BB7.2) mAb, then washed twice. Cells were then incubated for 30 minutes, 4° C. with a saturating concentration of FITC-conjugated goat IgG F(ab′)2 anti-mouse Ig (Caltag, San Francisco, Calif.), washed twice, fixed in PBS/1% paraformaldehyde and analyzed using a FACS Calibur® cytofluorometer (Becton Dickinson, Immunocytometry Systems, San Jose, Calif.)
(§2) The mean intensity of fluorescence (MIF) observed for each peptide concentration (after dividing by the MIF in the absence of peptide) was used as an indication of peptide binding and expressed as a “fluorescence index.” Stabilization assays were performed similarly. Following initial evaluation of peptide binding at time 0, cells were washed in RPMI complete medium to remove free peptides and incubated in the continuous presence of 0.5 μg/ml brefeldin-A for 2, 4, 6 or 8 hours.

[2] = target: T1, HLA-A0201 molecule on T2 cells (TAP-, …); assay: T2 binding and stabilization assay, flow cytometry with BB7.2
Description: as §1, §2

| Binder | binding result [1] | binding result [2] |
| --- | --- | --- |
| SSKALQRPV (Synthetic 9-mer) [CMLA2 native (p210-b3a2)] | binds |  |
| KALQRPVAS [p210Cn native (p210-b3a2)] |  | binds |
| YLINKEEAL (Synthetic analogue of b2a2A; also called YLINKEEAL) [b2a2 A3 (analogue)] |  | binds |

Other lines, results leading:

| binding result [1] | binding result [2] | Binder |
| --- | --- | --- |
|  | binds | YLINKEEAV (Synthetic analogue of b2a2A) [b2a2 A4 (analogue)] |
|  | binds | YLINKVEAL (Synthetic analogue of b2a2A; also called YLINKVEAL) [b2a2 A5 (analogue)] |
